Reference: paper PMC9968394

How the values were obtained:
Test in all cases: SPR; Biacore; anti-OGT VNARs diluted to 100 nM; recombinant ncOGT in PBS at 50, 100, 200, 400 and 800 nM introduced successively; binding 120 s, dissociation 200 s in PBS; Langmuir model fit; who was immobilised is not said
[1] = target: anti-OGT VNAR 2D9 (Chiloscyllium plagiosum (whitespotted bambooshark))
[2] = target: anti-OGT VNAR 3F7 (Chiloscyllium plagiosum (whitespotted bambooshark))
[3] = target: anti-OGT VNAR 4G2 (Chiloscyllium plagiosum (whitespotted bambooshark))

B1: recombinant ncOGT protein (O-GlcNAc transferase) (enzyme)
chain: MASSVGNVADSTEPTKRMLSFQGLAELAHREYQAGDFEAAERHCMQLWRQEPDNTGVLLLLSSIHFQCRRLDRSAHFSTLAIKQNPLLAEAYSNLGNVYKERGQLQEAIEHYRHALRLKPDFIDGYINLAAALVAAGDMEGAVQAYVSALQYNPDLYCVRSDLGNLLKALGRLEEAKACYLKAIETQPNFAVAWSNLGCVFNAQGEIWLAIHHFEKAVTLDPNFLDAYINLGNVLKEARIFDRAVAAYLRALSLSPNHAVVHGNLACVYYEQGLIDLAIDTYRRAIELQPHFPDAYCNLANALKEKGSVAEAEDCYNTALRLCPTHADSLNNLANIKREQGNIEEAVRLYRKALEVFPEFAAAHSNLASVLQQQGKLQEALMHYKEAIRISPTFADAYSNMGNTLKEMQDVQGALQCYTRAIQINPAFADAHSNLASIHKDSGNIPEAIASYRTALKLKPDFPDAYCNLAHCLQIVCDWTDYDERMKKLVSIVADQLEKNRLPSVHPHHSMLYPLSHGFRKAIAERHGNLCLDKINVLHKPPYEHPKDLKLSDGRLRVGYVSSDFGNHPTSHLMQSIPGMHNPDKFEVFCYALSPDDGTNFRVKVMAEANHFIDLSQIPCNGKAADRIHQDGIHILVNMNGYTKGARNELFALRPAPIQAMWLGYPGTSGALFMDYIITDQETSPAEVAEQYSEKLAYMPHTFFIGDHANMFPHLKKKAVIDFKSNGHIYDNRIVLNGIDLKAFLDSLPDVKIVKMKCPDGGDNADSSNTALNMPVIPMNTIAEAVIEMINRGQIQITINGFSISNGLATTQINNKAATGEEVPRTIIVTTRSQYGLPEDAIVYCNFNQLYKIDPSTLQMWANILKRVPNSVLWLLRFPAVGEPNIQQYAQNMGLPQNRIIFSPVAPKEEHVRRGQLADVCLDTPLCNGHTTGMDVLWAGTPMVTMPGETLASRVAASQLTCLGCLELIAKNRQEYEDIAVKLGTDLEYLKKVRGKVWKQRISSPLFNTKQYTMELERLYLQMWEHYAAGNKPDHMIKPVEVTESA
- Kd [1]: 35.5 nM
- koff [1]: 0.000675 s⁻¹
- kon [1]: 19000 M⁻¹ s⁻¹
- Kd [2]: 53.4 nM
- koff [2]: 0.00106 s⁻¹
- kon [2]: 19800 M⁻¹ s⁻¹
- Kd [3]: 89.7 nM
- koff [3]: 0.00076 s⁻¹
